B1: GAL4-activation domain of the empty pACT vector (other)
chain: ANFNQSGNIADSSLSFTFTNSSNGPNLITTQTNSQALSQPIASSNVHDNFMNNEITASKIDDGNNSKPLSPGWTDQTAYNAFGITTGMFNTTTMDDVYNYLFDDEDTPPNPKKE
notes: Negative control of the yeast two-hybrid system
B2: GAL4-activation domain fusion of the AAP-3 cDNA clone (pACT) (other)
chain: HEGPMVGGGGVGGGLLENANPLIYQRSGERPVTAGEEDEQVPDSIDAREIFDLIRSINDPEHPLTLEELNVVEQVRVQVSDPESTVAVAFTPTIPHCSMATLIGLSIKVKLLRSLPQRFKMDVHITPGTHASEHAVNKQLADKERVAAALENTHLLEVVNQCLSARS
notes: Yeast two-hybrid prey; also called Apoptin-associating clone AAP-3

Columns and labels:
[1] = biological target: T1, fusion gene product of GAL4-DNA-binding domain and Apoptin (bait plasmid pGBT-VP3) (chicken anemia virus, UniProt P04386 1-147; Q99152 1-121); assay: yeast two-hybrid control (HIS3 and LacZ reporters)
T1 construct: Yeast two-hybrid bait, expressed in yeast strain Y190; also called pGBT9-VP3; not shown: residues encoded by the EcoRI-NdeI linker

[2] = biological target: T1, fusion gene product of GAL4-DNA-binding …; assay: yeast two-hybrid

Row | Binder | binding result [1] | binding result [2]
1 | B1 | no binding | –
2 | B2 | – | binds
